Laboratory results from US6994974B1, “Intracellular amyloid-beta binding (ERAB) polypeptide-related assays” (The trustees of Columbia University in the city of New York, priority 1997, dated 2006).

Biological target: T1, amyloid-beta peptide (1–42) (Homo sapiens, UniProt P05067)
T1 construct: the region encoding A4 (APP amino acids 653 to 694)
Assay: Binding of ^125I-TrcHis-ERAB polypeptide to amyloid-beta peptide (1–42) adsorbed to microtiter wells
Conditions: excess unlabelled protein
Method: FIGS. 2A, 2B, 2C, 2D, 2E, 2F, and 2G. […] FIG. 2A. SDS-PAGE (12%; reduced) followed by immunoblotting of TrcHis-ERAB polypeptide (FIG. 2A, lane 1; 2 μg) and TrcHis-chloramphenicol acetyltransferase (CAT; FIG. 2A, lane 2; 2 μg) fusion proteins using anti-ERAB polypeptide IgG (3 μg/ml). […] FIGS. 2B and 2C. […] Binding was analyzed by nonlinear least squares analysis using the method of Klotz and Hunston (60). FIG. 2E. […] FIGS. 2F and 2G. […] 0 indicates wells coated with albumin alone. […] Control TrcHis-CAT construct (Invitrogen) was also used to transform E. coli and the fusion protein was purified as above. Antibody to ERAB polypeptide was prepared by immunizing rabbits with ERAB polypeptide-derived peptides, corresponding to residues 100–116 and 133–147, conjugated to keyhole limpet hemocyanin. […] (for ERAB polypeptide) or overnight at 4° C. […] Unbound radioactivity was removed by washing wells five times with ice cold phosphate-buffered saline containing Tween 20 (0.05%), and bound radioactivity was eluted by incubation with Nonidet P-40 (1%).

B1: TrcHis-CAT: control fusion protein, TrcHis-chloramphenicol acetyltransferase (protein)
chain: MEKKITGYTTVDISQWHRKEHFEAFQSVAQCTYNQTVQLDITAFLKTVKKNKHKFYPAFIHILARLMNAHPEFRMAMKDGELVIWDSVHPCYTVFHEQTETFSSLWSEYHDDFRQFLHIYSQDVACYGENLAYFPKGFIENMFFVSANPWVSFTSFDLNVANMDNFFAPVFTMGKYYTQGDKVLMPLAIQVHHAVCDGFHVGRMLNELQQYCDEWQGGA
modifications: left off: small tags and cut ends
notes: control fusion protein, TrcHis-chloramphenicol acetyltransferase
  Inhibition of ^125I-TrcHis-ERAB binding to adsorbed amyloid-beta peptide: did not inhibit
